Test results: the DeepSol protein solubility set

Assay: soluble on expression in E. coli; label from the status in PepcDB or PDB records

Sequence | soluble on expression in E. coli
MGSDKIHHHHHHMTATDSSILNQYLVGKEPFYQPQHDEVALFEAAYRKRLPVMVKGPTGCGKSRFVEFMAWRLGKPLVTVACNEDMTAADLVGRWLLDKDGTRWQDGPLTVAARYGAICYLDEIVEARQDTTVVIHPLTDHRRTLPLDKKGELIRAHPDFQLVISYNPGYQSLMKDLKQSTKQRFTGFEFDYPNAELEAGILVQETGVAPSIAAQLVTVAATARRLKGHGLDEGISTRLLVYAAMLMDDGVAPRAACRMALVQPITDDADIRATLEHAIDMTFA | not soluble
GGGGGGMGSPYEYQPEVKWYHVLWDMRNKQFRQWYLKKKYRDMRIAYKYESHILYQKAGMGFLMAAVFMSIFSSDLAVAVFRWPTEDPNELLKSQVWQKYHNQLNERKEYADKLLQDSNYIHRKNNPGE | soluble
RTEAGDAYYSKFANNTPLPALMVSRKKFGSSYVYDKSYKTWDVPIAEQMEQKAKINIFAVAEYTDTQKIKVTVKGKILEGNTLPKSMVQVYLLEDKLIAPQVDGNTTVENYEHNHVLRGAVNGIWGEEFVNLKDYLYTYAVEPLSGMSFVAENYSIVAFVYDVQTFEVYDVVHVKINPQSDGK | soluble
MEQATQQIAISDAAQAHFRKLLDTQEEGTHIRIFVVNPGTPNAECGVSYCPPNAVEESDIEMKYNTFSAFIDEVSLPFLEEAEIDYVTEELGAQLTLKAPNAKMRKVADDAPLIERVEYVIQTQINPQLANHGGRITLIEITEDGYAVLQFGGGCNGCSMVDVTLKDGVEKQLVSLFPNELKGAKDITEHQRGEHSYYLEHHHHHH | soluble
MIQPVAVIGAGPFGLSTAAHLRARGIPVRVFGDPMVSWRDHMPAGMLLKSTPAASTIDAPQRGHRLVDYCDAAGIARLVTDEDIIPVETFIGYGRWFQEQLVPGLEQVRVVSVDRKAGGGFELKLDSGELFTARAVVVATGLSGLAHLPAELAGAAVDGPTPTGPVSHSSQHHDLSRFAGKELVVVGAGQSALETAALAAEAGAHVRVVSRGRGRVSFGAPPWKQPRLRPESPFGRAWSLWALSYYPHPYRYLPAEARHYLVRRVLGPLGAWWLRDRFEGKVEVREVASVARAHASEGSPVLTLRTHGGRTQELPADHVIAATGYRVDIAAMDFLGHELRTELVVSRGTPKLGAGFRSSVPGLYFTGLPAAASYGPVMRFVCGTEFASPRLAKHLAGAHGLEHHHHHH | not soluble
MGSDKIHHHHHHMKGIEVKQVTKSFDKKMILNGIGMTIEPNKIYGLLGRNGAGKSTLLSLLVNRIAPDTGEIRLDNKVIRDNDEQLSKMFLMSEVDLYPKNLKVKDVFKWTKSFYGGFDEELAQDLCEKFGLQTNIIFNKLSTGYRTIMKLIVALAVPVEYVFLDEPILGLDAGHREIFYNALVETYAENPRTFVISTHLIEEIANLIEHVLVIDHGRLIVDDETEKVLGEAYVVSGPEDKVDEYTQGLNVIGSDKLARIKASYVFGSLDNKPISDLINIDQMDLQTLFVNLTNGGNENE | not soluble
MSLKIMIVEDDRIQATSLKLKLRQLGLDDVILAENGFAALELCNKVGIDLMFCDIRMPQMDGISLLSQLSLQAPKLGVVILSAVEDTILELTHNMCSLAGFAYVDRLPKPYEVEDLQRVVEGFQKQTEPETSHKPAITLTCDEIEQAFLHDHIFNYYQPQFDFRSGAMVGVEALVRYEHPTHGMLSPAVFLPLIEQCGLHEKLFLTVLEKSVSALASIGADLQLSVNISQRNLQHSICDPILAICERYGFPASKLTLEMTEHEVYNGTPTSLANLARLRMYGVGLSIDDFGTGYASLGQLAQLPFTELKIDRSFVHDLATNYKHQQLTNMCLLLAQSLGLHCVVEGVENEETWQYLRQLGVDTCQGYYAAKPMPIAQLSELYTKNRRQCLGEGHHHHHH | soluble
MFDIGFSELLLVFVIGLIVLGPQRLPVAVKTVAGWIRALRSLATTVQNELTQELKLQEFQDSLKKVEKASLENLTPELKASMDELRQAAESMKRTYSANDPEQASDEAHTIHNPVVKGNETQHEGVTPAAAETQASAPEQKPEPVKANVPESTETASVATIDAEKKSAAPVVESSPSSSDKPLEHHHHHH | not soluble
MGSDKIHHHHHHMRIAVIGGGSSYTPELVKGLLDISEDVRIDEVIFYDIDEEKQKIVVDFVKRLVKDRFKVLISDTFEGAVVDAKYVIFQFRPGGLKGRENDEGIPLKYGLIGQETTGVGGFSAALRAFPIVEEYVDTVRKTSNATIVNFTNPSGHITEFVRNYLEYEKFIGLCNVPINFIREIAEMFSARLEDVFLKYYGLNHLSFIEKVFVKGEDVTEKVFENLKLKLSNIPDEDFPTWFYDSVRLIVNPYLRYYLMEKKMFKKISTHELRAREVMKIEKELFEKYRTAVEIPEELTKRGGSMYSTAAAHLIRDLETDEGKIHIVNTRNNGSIENLPDDYVLEIPCYVRSGRVHTLSQGKGDHFALSFIHAVKMYERLTIEAYLKRSKKLALKALLSHPLGPDVEDAKDLLEEILEANREYVKLG | not soluble
MGSDKIHHHHHHMYPKNFWYVGAMKHEVGRQLLARTLLEQPVVFFRRNDGSVAALADRCSHRRVSLSLGRLIGDEVQCGYHGLTFAGDGSCTSIPGQSRVPPSACVRSYPVVERDGFVWIWPGDPALANETLVPDYAEICSSGRYVGRPAEALLVEAPFLFNIENVLDLSHVTYAHPETVGTPEVALTRPTVDVSEAKVQVTRNWDKASTGPSFKNLFGWDFVKNSQRISFWPGANMLLEIEVEPVGNNDPTQIKRLRVPGPCTPSTSTTHFKFSALYRDFLPDNEALTVGMFEQFRKTVMEDKVLMENQQRNWALDGVEVIRRIEPSSSGGMMDIAVDHAPLAARRWLQRLAMAERSAPEIKAPGVLQG | not soluble
MAHHHHHHMTFCGFGCVSTSEVGIIENCGKFDRTADPGCFCIVPCVESVRGVVSLKVAISTVRVETKTRDNAVVNIETRLHYKVIAECAEDAFYRFSNPSEQIASFAASVVRGEVPKYTLDELFLMSDEIKKVVSAELTEKLRGFGFSLESTLLTRIEPSASVKTAISQTQINAYRRTAAEHESELNKILAVKAAEADYEEKRLSGVGLAQERQAIMKGLKSSIESFVNAVPSMRAKDVMNLLLLNQYFDAMKEVGSGKSNKLILMPNTCGAAPNFMADLVAAQAGAARMM | not soluble
MIFMRKVVAEVSIIPLGKGASVSKYVKKAIEVFKKYDLKVETNAMGTVLEGDLDEILKAFKEAHSTVLNDVDRVVSSLKIDERKDKENTIERKLKAIGEL | soluble
MILSVTFSPSEVPLAGAIASISSIKIIAGAACLAFLKISLILFSLSPTHLLNTSGPLTAMKLASLSVATALAKRVLPVPGGPYNKTPLGGVIPSFLNALGYFSGHSTASLSSCFTSSNPPMSSQWTFGTSMRTSLKAEGSTIFKASLEHHHHHH | not soluble
MGSDKIHHHHHHMIAIEEIGRITPDNLGLVTVLAGEDLGQYAQMKEKLFQVIGFNKDDLAYSYFDLSEEDYQNAELDLESLPFLSDYKVVIFDQFQDITTDKKTYLDEQAMKRFEAYLQNPVDTTRLVICAPGKLDGKRRLVKLLKRDARVLEANTLKESDLKTYFQKYAHQEGLVFEAGVFDELLIKSNYDFSDTLTNIAFLKSYKTDGHISSNDVREAIPKSLQDNIFDLTQDVLLGRIDLARDLVRDLRLQGEDEIKLIAIMLGQFRMFLQVKILASKGKSESQIVSELSHYIGRKINPYQVKFAVRDSRNLPLAFLKEAIRILIETDYAIKRGTYDKDYLFDLALLKIAHKKP | not soluble
MSLKDMSYQAVMGRNNEIMKNAIGLDYSSFEQEGIGFDYEKMMSETGYTLQDIEAIQSQYAVGNTPLIELKNLTKLARKCAKEGKGARIFVKDEAMNASGSFKARRAATAVYHAKQMGYKGVIAATSGNYGAAVASQAAMQGLKCIIVQECYDSNGVGQPEIIEKARKCEAYGAEVVQLTVGPELFYTFLVLLEETGYFNASLYSPFGIAGVETLGYELAIQFREKYKKDPDIVVCTNAGGGNLTGTARGLIKAGSINTKVVGASVDLKGLHMASDNQFNKKSFTTGHTGFGIPYCTWPDRSDVPRSAARPLRYMDRYVLVKQGEVFYTTELLAQLEGIERGPAGNTSLAAAFSLAQELDEDKAIVVQETEYTGAGKHICPQLTFARENGIDIKFGNPREEIAGVNLILPERPELLKCVDIDMNKIRNSFIKNCISNNHIDNIDKLSNRDIEFLMEEVKSSRDFVVDVLNNLEGHHHHHH | not soluble
